Experimental data reported in patent US20260276625A1, “SCREENING METHOD FOR COMPOUND INDUCING AUTOPHAGY” (TOHOKU UNIVERSITY, priority 2023, published 2026).

Key:
[1] = molecular target: LgBiT-p62 (p62 fused at its N-terminus to the Large BiT luciferase fragment; expressed from pLgBiT-p62) (not stated (cDNA from total RNA of HeLa cells)) (UniProt Q13501); assay: NanoBiT split-luciferase complementation in HeLa cells co-transfected with pLgBiT-p62 and pSmBiT-DDX5, treated with 10 uM AUTAC2-2G, AUTAC4-2G, 8-nitro-cGMP or FBnG; read 10 min after start of measurement (FIG. 1)
[2] = molecular target: LgBiT-p62 (p62 fused at its N-terminus to the Large BiT luciferase fragment; expressed from pLgBiT-p62) (not stated (cDNA from total RNA of HeLa cells)) (UniProt Q13501); assay: NanoBiT split-luciferase complementation in HeLa cells co-transfected with pLgBiT-p62 and pSmBiT-DDX5; told of each of compounds 5 to 33 at 10 uM, 24 h
[3] = molecular target: LgBiT-p62 (p62 fused at its N-terminus to the Large BiT luciferase fragment; expressed from pLgBiT-p62) (not stated (cDNA from total RNA of HeLa cells)) (UniProt Q13501); assay: NanoBiT split-luciferase complementation in HeLa cells co-transfected with pLgBiT-p62 and pSmBiT-DDX5; told of each of AUTAC2-2G, AUTAC4-2G, 8-nitro-cGMP and FBnG at 10 uM
[4] = molecular target: LgBiT-p62 (p62 fused at its N-terminus to the Large BiT luciferase fragment; expressed from pLgBiT-p62) (not stated (cDNA from total RNA of HeLa cells)) (UniProt Q13501); assay: NanoBiT split-luciferase complementation in HeLa cells co-transfected with pLgBiT-p62 and pSmBiT-DDX5, treated with 10 uM of compounds 5 to 33 or AUTAC2-2G; read 10 min after start of measurement (FIG. 2)

emission intensity (NanoBiT luminescence) [1]: 1e+07
emission intensity, fold over cells treated with DMSO (times (vs DMSO-treated cells)) [2]: > 1000
emission intensity, fold over cells treated with DMSO (times (vs DMSO-treated cells)) [3]: > 1000
emission intensity (NanoBiT luminescence) [4]: > 1e+07
Substance: SmBiT-DDX5 (DDX5, DEAD box protein 5, fused at its N-terminus to the Small BiT luciferase fragment; expressed from pSmBiT-DDX5) (from UniProt P17844 1-614)
